Target: CLPP, ATP-dependent Clp protease proteolytic subunit, mitochondrial (mouse (endogenous in mouse tissues)) (UniProt O88696)
Test: native gel or EMSA; complexome profiling: mitochondria of WT and CLPP-null mouse testis, brain and heart (sucrose gradients), solubilised with digitonin, blue native electrophoresis on a 3 to 18% gradient gel, 48 slices, label-free mass spectrometry; co-migration read from the profiles

Sequence of CLPP, ATP-dependent Clp protease proteolytic subunit, mitochondrial, O88696 53-272 (natural protein; other documents disagree on this pair) (O88696 53-272): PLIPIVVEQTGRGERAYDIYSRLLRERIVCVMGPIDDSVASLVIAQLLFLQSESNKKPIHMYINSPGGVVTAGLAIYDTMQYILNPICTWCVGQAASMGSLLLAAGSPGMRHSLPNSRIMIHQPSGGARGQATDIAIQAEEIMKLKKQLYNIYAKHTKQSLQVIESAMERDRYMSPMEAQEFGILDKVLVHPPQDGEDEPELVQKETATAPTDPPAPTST

CLPP, ATP-dependent Clp protease proteolytic subunit, mitochondrial, O88696 53-272 (natural protein; other documents disagree on this pair)
stoichiometry N: 7
